Data from patent US20160304604A1 (H LUNDBECK A S, published 2016).

T1: human PACAP38 (human, not fully specified; C-terminal lysine is amidated)
T1 peptide: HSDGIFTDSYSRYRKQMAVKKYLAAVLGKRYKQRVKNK

T2: human PACAP27 (human, C-terminal leucine is amidated)
T2 peptide: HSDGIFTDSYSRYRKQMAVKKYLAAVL

T3: PAC1-R on PC-12 cells (UniProt P32215 20-523)
T3 construct: whole, on cells; Endogenous receptor of PC-12 cells; also called PAC1 receptor; PAC1-R-expressing PC-12 cells
T3 sequence (looked up): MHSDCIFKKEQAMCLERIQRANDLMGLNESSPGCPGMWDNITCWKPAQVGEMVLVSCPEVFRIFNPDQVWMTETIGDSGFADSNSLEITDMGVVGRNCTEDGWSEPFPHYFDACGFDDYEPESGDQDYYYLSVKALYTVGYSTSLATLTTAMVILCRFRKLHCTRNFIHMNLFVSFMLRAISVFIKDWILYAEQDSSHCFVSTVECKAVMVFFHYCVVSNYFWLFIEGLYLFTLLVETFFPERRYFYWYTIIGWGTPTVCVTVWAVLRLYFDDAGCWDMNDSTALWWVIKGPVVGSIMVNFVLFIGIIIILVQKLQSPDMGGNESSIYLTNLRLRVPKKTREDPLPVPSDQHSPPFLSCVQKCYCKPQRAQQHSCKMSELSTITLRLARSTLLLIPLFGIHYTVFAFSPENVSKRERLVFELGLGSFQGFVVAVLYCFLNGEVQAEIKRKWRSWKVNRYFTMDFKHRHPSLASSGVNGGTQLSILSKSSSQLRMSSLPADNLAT


Legend:
[1] = biological target: T1, human PACAP38; test: cell-based or functional assay
[2] = biological target: T2, human PACAP27; test: cell-based or functional assay
[3] = biological target: T3, PAC1-R on PC-12 cells; test: DELFIA TRF cell-surface binding assay: antibody pre-incubated with PACAP38 (200 nM stock mixed 1:1), added to PAC1-R-expressing PC-12 cells, Eu anti-human IgG detection
Description: Cells were initially seeded at 1×10⁵ cells/well in a solution of complete RPMI (“cRPMI”: RPMI medium supplemented with 10% sterile heat-inactivated FBS and 1% sterile antibiotic/antimycotic)+10% FBS, and the plates were allowed to incubate overnight at 37° C. On the day of the binding assay, antibodies at an initial concentration of 15 μg/ml were diluted at a 1:3 ratio in DELFIA® binding buffer (50 mM Tris, 150 mM NaCl, 0.1% azide, 2% horse serum) (Perkin-Elmer, Waltham, Mass.) to a total volume of 60 μL in a separate 96 well round bottom plate. PACAP38 was prepared for the binding assay by diluting it in DELFIA® binding buffer to a concentration of 200 nM, and then 60 μl of the diluted PACAP38 was added to each of the antibody-containing wells to form antibody:antigen complexes. Following addition of PACAP38, the antibody:antigen complexes were incubated at room temperature on a shaker for 1 hour. […]
DELFIA® Europium labeled anti-human IgG detection reagent (Cat #1244-330, Perkin-Elmer, Waltham, Mass.) was diluted to a concentration of 300 ng/ml in DELFIA® Binding Buffer. […] The plates were then read (TRF, excitation 330 nm, emission 620 nm) on a SPECTRAMAX® (Molecular Devices, Sunnyvale, Calif.) plate reader.

[4] = biological target: T1, human PACAP38; test: cell-based or functional assay
[5] = biological target: T1, human PACAP38; test: cell-based or functional assay
[6] = biological target: T1, human PACAP38; test: SPR (ProteOn XPR36), antibody amine-coupled to chip, PACAP38 as analyte 1.23-100 nM, 1:1 Langmuir fit
Description: Binding affinities of monoclonal antibodies for human PACAP were estimated using SPR on the PROTEON™ XPR36 (Bio-Rad, Hercules, Calif.). Antibody was immobilized to the surface of general amine coupling (“GLC” or “GLM”) Chips (Bio-Rad, Hercules, Calif.). A dilution series of human PACAP38 (SEQ ID NO: 1241) prepared in 1×PBST Buffer (4.3 mM Na Phosphate, 1.4 mM K Phosphate, 135 mM NaCl, 2.7 mM KCl 0.05% Polysorbate-20) purchased from Teknova (Cat# P1192, Teknova, Hollister, Calif.) and supplemented with 0.25 M arginine (from J. T. BAKER®), 0.2 mg/ml BSA (Jackson Immuno Research Labs, West Grove, Pa.), and 0.005% sodium azide (VWR International, Radnor, Pa.) with the pH adjusted to 7 was used to query the antibodies. Antigen (ranging from 1.23 nM to 100 nM) was typically run sequentially with association times of 2-4 minutes and dissociation times of 3-120 minutes grouped with the PROTEON™ Manager Software (v3.1.0.6 (Bio-Rad, Hercules, Calif.)) and fitted using a 1:1 Langmuir binding model. Surfaces were regenerated between analyte queries using 0.85% Phosphoric Acid.

[7] = biological target: T2, human PACAP27; test: SPR (ProteOn XPR36), antibody amine-coupled to chip, PACAP27 as analyte 1.23-1000 nM

Inhibition of 0.1 nM PACAP38-induced PAC1-R mediated cAMP increase IC50 (PC-12 cells, HTRF) [1] | Inhibition of 0.1 nM PACAP27-induced PAC1-R mediated cAMP increase IC50 (PC-12 cells, HTRF) [2] | Inhibition of 5 nM PACAP38-induced human VPAC1-R mediated cAMP increase IC50 (CHO-K1 cells, HTRF) [4] | Inhibition of 1 nM PACAP38-induced human VPAC2-R mediated cAMP increase IC50 (CHO-K1 cells, HTRF) [5] | Kd [6] | koff [6] | Kd [7] | koff [7] | Binder | binding result [3]
180 pM | 227 pM | 649 pM | 188 pM |  |  |  |  | Ab10 (antibody, human IgG1, kappa, N297A, V domains shown, also called anti-PACAP antibody Ab10) VH: QSVEESGGRLVTPGTPLTLTCTVSGIDLNSYYMTWVRQAPGKGLEWIGFIDAGGDAYYASWAKGRFTISKTSTTVDLKITSPTTEDTATYFCARDLDLWGQGTLVTVSS VL: AAVLTQTPSPVSAAVGGTVTINCQSSESVYGNYLAWFQQKPGQPPKLLIYEASKLESGVPSRFSGSGSGTQFTLTISDLQCDDAATYYCAGGDISEGVAFGGGTEVVVKR | no binding (tested: about 5000 nM (last point as drawn))
368 pM | 188 pM | 3890 pM | 14600 pM |  |  |  |  | Ab20 (antibody, human IgG1, kappa, N297A, V domains shown) VH: QSVEESGGRLVTPGTPLTLTCTVSGIDLSSYYMSWVRQAPGKGLEWIGFIDTDGSAYYATWAKGRFTISKTSTTVDLKITSPTTEDTATYFCARDLDLWGPGTLVTVSS VL: AAVLTQTPSPVSAAVGGTVSISCQSSESVYSNYLAWFQQKPGQPPKFLIYEASKLASGVPSRFKGSGSGTQFTLTISDVQCDDAGTYYCAGGYSSEGVAFGGGTEVVVKR | 
239 pM | 140 pM | 2850 pM | 5220 pM |  |  |  |  | Ab21 (antibody, human IgG1, kappa, N297A, V domains shown) VH: QSVEESGGRLVTPGTPLTLTCTVSGIDLSSYYMTWVRQAPGKGLEWVGFIDAGGSAYYATWAKGRFTISKASTTVDLKITSPTTEDTATYFCARDLDLWGPGTLVTVSS VL: AAVLTQTPSPVSAAVGGTVSISCKSSESVYGDYLAWFQQKPGQPPKQLIYDASTLASGVPSRFKGSGSGTQFTLTISGVQCDDAATYYCAGGYVSAGVAFGGGTEVVVKR | 
246 pM | 204 pM | 2100 pM | 1510 pM | 21 pM | 1e-05 s⁻¹ | 16 pM | 1e-05 s⁻¹ | Ab21.H (antibody, V domains shown) VH: EVQLVESGGGLVQPGGSLRLSCAASGIDLSSYYMTWVRQAPGKGLEWIGFIDAGGSAYYATWAKGRFTISRDNSKNTVYLQMNSLRAEDTAVYFCARDLDLWGQGTLVTVSS VL: DAQLTQSPSTLSASVGDRVTITCKSSESVYGDYLAWFQQKPGKAPKQLIYDASTLASGVPSRFSGSGSGTEFTLTISSLQPDDFATYYCAGGYVSAGVAFGGGTKVEIKR | 
